Measurements: paper doi:10.1101/2020.06.30.176701 (bioRxiv, 2020)
Where two headings read alike, the source gives them in different places. Each block holds one binder with its values, some of them ahead of it.

Assays:
Assay in all cases: high-speed atomic force microscopy
[1] = target: T1, archaeal ribosomal P-stalk complex aP0•(aP1•aP1)3 (Pyrococcus horikoshii, UniProt O74109 1-342; O57705 1-108)
T1 sequence (looked up) 1: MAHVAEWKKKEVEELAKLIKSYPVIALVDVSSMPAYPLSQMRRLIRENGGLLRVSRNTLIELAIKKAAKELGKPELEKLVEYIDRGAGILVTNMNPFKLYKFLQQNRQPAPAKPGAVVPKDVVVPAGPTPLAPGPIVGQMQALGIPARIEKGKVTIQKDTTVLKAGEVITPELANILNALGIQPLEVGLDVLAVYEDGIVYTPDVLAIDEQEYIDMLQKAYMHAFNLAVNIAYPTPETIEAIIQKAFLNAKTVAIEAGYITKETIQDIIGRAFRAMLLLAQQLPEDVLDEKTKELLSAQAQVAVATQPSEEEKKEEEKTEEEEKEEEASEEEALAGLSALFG
T1 sequence (looked up) 2: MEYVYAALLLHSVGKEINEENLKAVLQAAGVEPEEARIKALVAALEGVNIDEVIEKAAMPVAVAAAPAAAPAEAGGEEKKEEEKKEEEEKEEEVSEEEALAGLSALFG

[2] = target: T1, archaeal ribosomal P-stalk complex …; remark: listed apart in the source
[3] = target: T1, archaeal ribosomal P-stalk complex …; remark: listed apart in the source
[4] = target: T1, archaeal ribosomal P-stalk complex …; remark: listed apart in the source
[5] = target: T1, archaeal ribosomal P-stalk complex …; remark: listed apart in the source

- fold distribution near the P-stalk relative to the opposite control area [1]: 2.6 fold
- fold distribution near the P-stalk relative to the opposite control area [2]: 4.2 fold
B1: archaeal elongation factor 1A (aEF1A) of Pyrococcus furiosus (natural protein, UniProt Q8U152 1-428, looked up)
chain: MPKDKPHVNIVFIGHVDHGKSTTIGRLLYDTGNIPEQIIKKFEEMGEKGKSFKFAWVMDRLKEERERGITIDVAHTKFETPHRYITIIDAPGHRDFVKNMITGASQADAAVLVVAATDGVMPQTKEHAFLARTLGIKHIIVAINKMDMVNYNQKRFEEVKAQVEKLLKMLGYKDFPVIPISAWEGENVVKKSDKMPWYNGPTLIEALDQIPEPEKPVDKPLRIPIQDVYSIKGVGTVPVGRVETGKLRVGEVVIFEPASTIFHKPIQGEVKSIEMHHEPLEEALPGDNIGFNVRGVSKNDIKRGDVAGHTTNPPTVVRTKDTFKAQIIVLNHPTAITVGYSPVLHAHTAQVPVRFEQLLAKLDPKTGNIVEENPQFIKTGDAAIVILRPMKPVVLEPVKEIPQLGRFAIRDMGMTIAAGMVISIQRGE

- fold distribution near the P-stalk relative to the opposite control area [3]: ~4.3 fold
- stoichiometry N [4]: ≤ 7 aEF2 molecules per P-stalk
- fold distribution near the P-stalk relative to the opposite control area [5]: 6.6 fold
B2: archaeal elongation factor 2 (aEF2) of Pyrococcus furiosus (natural protein, UniProt P61877 1-732, looked up)
chain: MGRREEMIAKIKELMLQPERIRNIGIAAHIDHGKTTLSDNLLAGAGMISEELAGKQLVLDFDEQEQARGITINAANVSMVHNYEGKDYLINLIDTPGHVDFGGDVTRAMRAIDGVIIVVDAVEGVMPQTETVVRQALREYVKPVLFINKVDRLIRELKLTPQQMMERFSKIIMDVNRLIQRYAPEEYKKKWMVRVEDGSVAFGSAYYNWALSVPFMQRTGVKFNEIIDLTLKGDNKTLRQRAPLHVVVLDMVVRHLPSPIEAQKYRIPHLWQGDINSKIGQAMLNCDPKGKMVMVITKIIIDKHAGEVATGRVWSGTVRSGQEVYLINSKRKGRIQQVGIYMGPERINMEAVPAGNIVAVTGLRDAMAGETVAEEQIEPFEALHYVSEPVVTVAIEAKNVKDLPRLIEALRQLAKEDPTLHVKIDEETGQHLLSGMGELHLEVKLYKLQKDWGIEVDVSEPIVVYRESITKPSPIVEGKSPNKHNRFYVVVEPMPDEIYQAIKEGIIPEGRVKDPKAVAKKLAELGMDYDIARGVVDIYNGNMFLDNTKGIQYLNEVMDLLIDGFHQAMDEGPLAKEPVMKVIVRLVDAQVHEDNVHRGPAQIYPAIRTAIHCAMMKAGPVLYEPYQKVIINIPYEYMGAVSREISQRRGQLIDMRQEGEVMTIIAEAPVAEMFGFAGAIRSATSGRALWSTEHAGFKRVPNELAQQIIRQIRQRKGLDPNPPTEKDVCPLF
